Key:
[1] = molecular target: hu-FCGRI (hu-CD64) (human) (UniProt P12314); assay: SPR (ProteOn NLC chip), 25 C, pH 7.4
[2] = molecular target: hu-FCGRIIa (hu-CD32a) 131H (human) (UniProt P12318); assay: SPR (ProteOn NLC chip), 25 C, pH 7.4
[3] = molecular target: hu-FCGRIIa (hu-CD32a) 131R (human) (UniProt P12318); assay: SPR (ProteOn NLC chip), 25 C, pH 7.4
[4] = molecular target: hu-FCGRIIb (hu-CD32b) (human) (UniProt P31994); assay: SPR (ProteOn NLC chip), 25 C, pH 7.4
[5] = molecular target: Cynomolgus Monkey-FcRn (cynomolgus monkey) (UniProt Q8SPV9); assay: SPR (ProteOn NLC chip), 25 C, pH 5.9, n = 3
Chain of Cynomolgus Monkey-FcRn (cynomolgus monkey) (Q8SPV9 24-297 limits assumed, form in doubt): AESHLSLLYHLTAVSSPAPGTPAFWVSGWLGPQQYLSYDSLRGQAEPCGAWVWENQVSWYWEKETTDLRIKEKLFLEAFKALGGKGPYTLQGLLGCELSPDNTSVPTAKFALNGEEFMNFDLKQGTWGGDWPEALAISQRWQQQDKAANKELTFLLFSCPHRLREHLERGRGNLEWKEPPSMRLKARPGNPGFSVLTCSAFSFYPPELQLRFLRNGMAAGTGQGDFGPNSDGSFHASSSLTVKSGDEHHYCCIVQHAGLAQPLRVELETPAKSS

[6] = molecular target: hu-FcRn (human neonatal Fc receptor) (human) (UniProt P55899); assay: SPR (ProteOn NLC chip), 25 C, pH 5.9, n = 3
Chain of hu-FcRn (human neonatal Fc receptor) (human) (P55899 24-297 limits assumed, chain 1 of 2): as the sequence (Q8SPV9 24-297 limits assumed, form in doubt) above, with D39N, Q44E, S99G, G189S, N190S, M217L, T269S counted along it
Chain of hu-FcRn (human neonatal Fc receptor) (human) (chain, as listed by the source limits assumed, chain 2 of 2): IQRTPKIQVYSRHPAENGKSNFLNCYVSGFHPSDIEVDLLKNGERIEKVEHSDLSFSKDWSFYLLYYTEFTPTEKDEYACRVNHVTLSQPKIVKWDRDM

[7] = molecular target: Cynomolgus Monkey-FCGRIIIa 42R (cynomolgus monkey) (UniProt Q8SPW2); assay: SPR (ProteOn NLC chip), 25 C, pH 7.4, n = 3
Chain of Cynomolgus Monkey-FCGRIIIa 42R (cynomolgus monkey) (Q8SPW2 17-208 limits assumed): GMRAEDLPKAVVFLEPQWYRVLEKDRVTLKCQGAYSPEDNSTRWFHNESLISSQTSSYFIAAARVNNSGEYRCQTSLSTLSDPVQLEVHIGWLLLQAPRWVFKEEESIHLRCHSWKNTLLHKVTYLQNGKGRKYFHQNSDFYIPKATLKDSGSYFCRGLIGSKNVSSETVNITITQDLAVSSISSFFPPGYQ

[8] = molecular target: Cynomolgus Monkey-FCGRIIIa 42S (cynomolgus monkey); assay: SPR (ProteOn NLC chip), 25 C, pH 7.4, n = 3
[9] = molecular target: Cynomolgus Monkey-FCGRIIa (cynomolgus monkey); assay: SPR (ProteOn NLC chip), 25 C, pH 7.4, n = 3
[10] = molecular target: hu-FCGRI (hu-CD64) (human) (UniProt P12314); assay: SPR (ProteOn NLC chip), 25 C, pH 7.4, n = 4
[11] = molecular target: T1, rat PD-1 on primary rat T cells (rat, UniProt D3ZIN8 25-287); assay: FACS, naive primary rat T cells
T1 sequence: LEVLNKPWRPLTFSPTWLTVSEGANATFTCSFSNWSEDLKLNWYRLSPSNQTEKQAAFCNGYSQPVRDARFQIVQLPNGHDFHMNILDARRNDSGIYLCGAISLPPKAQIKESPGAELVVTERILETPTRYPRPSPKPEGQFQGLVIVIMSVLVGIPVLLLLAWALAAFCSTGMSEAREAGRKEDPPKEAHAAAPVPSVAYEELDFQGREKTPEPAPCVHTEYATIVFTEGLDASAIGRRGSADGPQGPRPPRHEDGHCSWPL

[12] = molecular target: human PD-1 on primary human T cells (human) (UniProt Q15116); assay: FACS, naive primary human T cells
Chain of human PD-1 on primary human T cells (human) (Q15116 25-288 limits assumed): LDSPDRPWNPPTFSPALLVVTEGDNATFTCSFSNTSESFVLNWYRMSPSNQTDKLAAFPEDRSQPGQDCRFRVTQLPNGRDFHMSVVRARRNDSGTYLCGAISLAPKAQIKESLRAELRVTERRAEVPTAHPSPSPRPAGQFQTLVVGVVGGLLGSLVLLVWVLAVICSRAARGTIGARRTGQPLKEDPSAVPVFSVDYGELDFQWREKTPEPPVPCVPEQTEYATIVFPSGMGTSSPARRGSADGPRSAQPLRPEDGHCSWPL

[13] = molecular target: T1, rat PD-1 on primary rat T cells; assay: FACS, activated primary rat T cells
[14] = molecular target: human PD-1 on primary human T cells (human) (UniProt Q15116); assay: FACS, activated primary human T cells
[15] = molecular target: cynomolgus monkey PD-1 on primary cynomolgus monkey T cells (cynomolgus monkey) (UniProt B0LAJ3); assay: FACS, naive primary cynomolgus monkey T cells
Chain of cynomolgus monkey PD-1 on primary cynomolgus monkey T cells (cynomolgus monkey) (B0LAJ3 entry or part of it limits assumed): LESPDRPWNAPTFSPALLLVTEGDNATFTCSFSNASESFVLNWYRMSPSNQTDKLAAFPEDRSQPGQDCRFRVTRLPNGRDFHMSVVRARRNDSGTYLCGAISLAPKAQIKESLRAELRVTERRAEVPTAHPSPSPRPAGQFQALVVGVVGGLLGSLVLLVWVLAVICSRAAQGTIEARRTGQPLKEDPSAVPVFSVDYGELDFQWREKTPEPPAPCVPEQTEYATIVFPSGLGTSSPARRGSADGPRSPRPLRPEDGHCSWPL

[16] = molecular target: cynomolgus monkey PD-1 on primary cynomolgus monkey T cells (cynomolgus monkey) (UniProt B0LAJ3); assay: FACS, activated primary cynomolgus monkey T cells
[17] = molecular target: T2, human PD-1 (hPD-1) monomer (human, UniProt Q15116 25-167); assay: SPR, human PD-1, 37 C
T2 construct: also called hu-PD-1; not shown: His tag (His-tagged monomer)
T2 sequence (Q15116 25-167 limits assumed): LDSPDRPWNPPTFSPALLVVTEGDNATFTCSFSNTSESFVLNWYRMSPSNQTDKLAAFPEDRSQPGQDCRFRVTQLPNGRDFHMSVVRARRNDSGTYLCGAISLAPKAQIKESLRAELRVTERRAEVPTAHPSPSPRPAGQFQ

[18] = molecular target: T3, hPD-1-hFc1 (R&D systems cat. no. 1086PD) (human, UniProt Q15116 25-167); assay: SPR (Biacore 2000), Fab over anti-hFc-captured PD-1-hFc1, 25 C
T3 construct: Bought; not shown: human IgG1 Fc (hFc1)
T3 sequence (Q15116 25-167 limits assumed): as above
Procedure: (§1) All interaction analysis was performed on label-free biosensors at 25° C. unless stated otherwise. Surface plasmon resonance biosensors (ProteOn-XPR™ from BioRad™, and Biacore 2000™ and Biacore T200™ from GE Life Sciences) were used to study human and cynomolgus monkey PD-1 and a biolayer interferometry biosensor (Octet-Red384, Fortebio/Pall Life Sciences) was used to study mouse PD-1. ProteOn experiments were performed in PBS pH 7.4+0.01% Tween-20 (PBST) running buffer. Biacore experiments were performed in 10 mM Hepes pH 7.4, 150 mM NaCl, 0.05% Tween-20 (HBST+) and Octet experiments were performed in HBST+ with 1 g/l BSA. The ProteOn data were processed in the ProteOn Manager software, the Biacore data were processed in Biaevaluation, and the Octet data were simply aligned to zero in the control software.
(§2) An anti-hFc polyclonal antibody was amine-coupled to the chip and used to capture approximately 90 RU hPD-1-hFc1 and 125 RU cynoPD-1-hFc1 on flow cells 2 and 3, leaving flow cell 1 blank (naked anti-hFc capture surface) to provide a reference channel. Recombinant purified Fabs were injected for two min as analyte at 0, 10, and 100 nM over freshly captured PD-1-hFc1 fusion proteins, allowing a 15-min dissociation time.

[19] = molecular target: T4, cynoPD-1-hFc1 (prepared in-house) (cynomolgus monkey; human, UniProt B0LAJ3 25-170); assay: as above
T4 sequence (B0LAJ3 entry or part of it limits assumed): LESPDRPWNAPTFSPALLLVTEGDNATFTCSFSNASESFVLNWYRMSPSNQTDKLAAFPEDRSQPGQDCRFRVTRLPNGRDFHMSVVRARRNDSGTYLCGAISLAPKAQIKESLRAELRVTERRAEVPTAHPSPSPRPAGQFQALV
Procedure: as §1, §2

[20] = molecular target: T3, hPD-1-hFc1 (R&D systems cat. no. 1086PD); assay: SPR (Biacore 2000), Fab over anti-hFc-captured PD-1-hFc1, 25 C; 5% rule
Procedure: as §2

[21] = molecular target: T4, cynoPD-1-hFc1 (prepared in-house); assay: as above
Procedure: as §2

[22] = molecular target: T1, rat PD-1 on primary rat T cells; assay: flow cytometry, activated rat T cells
[23] = molecular target: mouse-PD-L1 (positive control of Example 12) (mouse, UniProt Q9EP73 19-238, limits assumed); assay: SPR, 25 C
[24] = molecular target: T5, mouse-PD-L2 (positive control of Example 12) (mouse, UniProt Q9WUL5 20-219, limits assumed); assay: SPR, 25 C
T5 sequence (looked up): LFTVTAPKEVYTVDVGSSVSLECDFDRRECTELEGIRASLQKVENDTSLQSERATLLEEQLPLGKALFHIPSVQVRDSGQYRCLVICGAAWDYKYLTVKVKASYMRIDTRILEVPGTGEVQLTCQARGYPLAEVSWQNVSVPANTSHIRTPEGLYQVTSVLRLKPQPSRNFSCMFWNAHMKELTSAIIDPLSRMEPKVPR

Chain of hu-FCGRI (hu-CD64) (human) (P12314 16-288 limits assumed): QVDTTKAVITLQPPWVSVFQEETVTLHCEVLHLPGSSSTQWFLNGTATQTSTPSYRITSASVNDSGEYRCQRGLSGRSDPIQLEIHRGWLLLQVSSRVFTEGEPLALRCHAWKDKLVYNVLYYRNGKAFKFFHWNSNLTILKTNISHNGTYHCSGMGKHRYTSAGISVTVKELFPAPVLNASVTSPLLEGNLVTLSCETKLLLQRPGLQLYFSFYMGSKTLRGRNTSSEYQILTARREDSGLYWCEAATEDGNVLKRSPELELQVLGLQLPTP
Chain of hu-FCGRIIb (hu-CD32b) (human) (P31994 46-217): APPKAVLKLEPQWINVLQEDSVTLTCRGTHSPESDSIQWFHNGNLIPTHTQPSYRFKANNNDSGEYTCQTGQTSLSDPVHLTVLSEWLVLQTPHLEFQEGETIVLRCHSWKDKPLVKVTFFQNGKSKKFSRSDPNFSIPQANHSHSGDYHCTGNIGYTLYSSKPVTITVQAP
Chain of hu-FCGRIIa (hu-CD32a) 131R (human) (P12318 36-218 H167R): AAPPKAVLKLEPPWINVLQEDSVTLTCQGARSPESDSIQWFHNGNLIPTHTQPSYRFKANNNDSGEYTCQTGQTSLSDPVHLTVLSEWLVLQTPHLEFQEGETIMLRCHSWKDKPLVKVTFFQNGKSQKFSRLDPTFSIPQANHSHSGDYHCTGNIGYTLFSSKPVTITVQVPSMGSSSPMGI
Chain of hu-FCGRIIa (hu-CD32a) 131H (human) (P12318 36-218): as the sequence (P12318 36-218 H167R) above, with R132H counted along it

## Isotype-matched control, hu-IgG4 (antibody)
[1]
  koff: 0.0018 s⁻¹
  kon: 1e+06 M⁻¹ s⁻¹
[2]
  Kd: 3900 nM
[3]
  Kd: 400 nM
[4]
  Kd: 700 nM
[5]
  Kd: 570 nM
[6]
  Kd: 820 nM
[7]
  Kd: 3200 nM
[8]
  Kd: 1900 nM
[9]
  Kd: 2600 nM
[10]
  Kd: 0.177 nM

## Negative control antibody (anti-bovine herpes virus, IgG4-HG framework)
[11]
  % Binding: 0.82%
[12]
  % Binding: 3.49%
[13]
  % Binding: 4.36%
[14]
  % Binding: 4.75%
[15]
  % Binding: 5.38%
[16]
  % Binding: 4.67%

B1: mAb4 (antibody, V domains shown)
VH: QVQLVQSGAEVKKPGASVKVSCKASGYTFTSYWINWVRQAPGQGLEWMGNIYPGSSLTNYNEKFKNRVTMTRDTSTSTVYMELSSLRSEDTAVYYCARLLTGTFAYWGQGTLVTVSS
VL: DIVMTQSPDSLAVSLGERATINCKSSQSLWDSTNQKNFLTWYQQKPGQPPKLLIYWTSTRESGVPDRFSGSGSGTDFTLTISSLQAEDVAVYYCQNDYFYPLTFGGGTKVEIK
notes: Variable regions only
[17]
  Kd: 89 nM

B2: mAb7 Fab (Fab, V domains shown)
VH: QVQLVQSGAEVKKPGASVKVSCKASGYTFTSYWINWVRQAPGQGLEWMGNIYPGSSLTNYNEKFKNRVTMTRDTSTSTVYMELSSLRSEDTAVYYCARLSTGTFAYWGQGTLVTVSS
VL: DIVMTQSPDSLAVSLGERATINCKSSQSLWDSGNQKNFLTWYQQKPGQPPKLLIYWTSYRESGVPDRFSGSGSGTDFTLTISSLQAEDVAVYYCQNDYFYPHTFGGGTKVEIK
[18]
  Kd: < 0.101 nM
  kon: 567000 M⁻¹ s⁻¹
[19]
  Kd: < 0.108 nM
  kon: 526000 M⁻¹ s⁻¹
[20]
  koff: < 5.7e-05 s⁻¹
[21]
  koff: < 5.7e-05 s⁻¹

B3: mAb15 Fab (Fab, V domains shown)
VH: QVQLVQSGAEVKKPGASVKVSCKASGYTFTSYWINWVRQAPGQGLEWMGNIWPGSSLTNYNEKFKNRVTMTRDTSTSTVYMELSSLRSEDTAVYYCARLLTGTFAYWGQGTLVTVSS
VL: DIVMTQSPDSLAVSLGERATINCKSSQSLWDSGNQKNFLTWYQQKPGQPPKLLIYWTSYRESGVPDRFSGSGSGTDFTLTISSLQAEDVAVYYCQNDYFYPHTFGGGTKVEIK
[18]
  Kd: < 0.062 nM
  kon: 916000 M⁻¹ s⁻¹
[19]
  Kd: < 0.069 nM
  kon: 824000 M⁻¹ s⁻¹
[20]
  koff: < 5.7e-05 s⁻¹
[21]
  koff: < 5.7e-05 s⁻¹

B4: Rat-PD-L1-Fc-Tag (Creative BioMart) (Fc fusion, not shown: a dimerising Fc or GST; small tags and cut ends)
chain: FTITAPKDLYVVEYGSNVTMECRFPVEQKLDLLALVVYWEKEDKEVIQFVEGEEDLKPQHSSFRGRAFLPKDQLLKGNAVLQITDVKLQDAGVYCCMISYGGADYKRITLKVNAPYRKINQRISMDPATSEHELMCQAEGYPEAEVIWTNSDHQSLSGETTVTTSQTEEKLLNVTSVLRVNATANDVFHCTFWRVHSGENHTAELIIPELPVPRLPHNRTH
[22]
  binding result: binds

B5: rat-PD-1 (recombinant purified, Example 12) (receptor)
chain: LEVLNKPWRPLTFSPTWLTVSEGANATFTCSFSNWSEDLKLNWYRLSPSNQTEKQAAFCNGYSQPVRDARFQIVQLPNGHDFHMNILDARRNDSGIYLCGAISLPPKAQIKESPGAELVVTERILETPTRYPRPSPKPEGQFQGL
[23]
  binding result: binds
[24]
  binding result: binds
